# According to US20240164355:
# Target: Ubiquitin-AMC (Ub-AMC) (UniProt P0CG48)
substance,measurement,value
CidB* (CidB-C1025A catalytic mutant),Ub-AMC hydrolysis,The CidB-C1025A catalytic mutant was inactive against Ub-AMC (data not shown)
